The source of these data is patent US20260201032A1 (UNIVERSITAT DE BARCELONA, published 2026).

This experiment has as its target T1, CD229 hDI/DIII/DIV mDII (human; mouse, UniProt Q9HBG7 48-158; Q01965 159-249; Q9HBG7 251-655, limits assumed).
T1 construct: domain: DI;domain: DII;domain: DIII/DIV; Expressed on transiently transfected COS cells; also called chimeric mouse human molecule where the second Ig domain of Ly9 was substituted the corresponding mouse domain
T1 sequence (looked up): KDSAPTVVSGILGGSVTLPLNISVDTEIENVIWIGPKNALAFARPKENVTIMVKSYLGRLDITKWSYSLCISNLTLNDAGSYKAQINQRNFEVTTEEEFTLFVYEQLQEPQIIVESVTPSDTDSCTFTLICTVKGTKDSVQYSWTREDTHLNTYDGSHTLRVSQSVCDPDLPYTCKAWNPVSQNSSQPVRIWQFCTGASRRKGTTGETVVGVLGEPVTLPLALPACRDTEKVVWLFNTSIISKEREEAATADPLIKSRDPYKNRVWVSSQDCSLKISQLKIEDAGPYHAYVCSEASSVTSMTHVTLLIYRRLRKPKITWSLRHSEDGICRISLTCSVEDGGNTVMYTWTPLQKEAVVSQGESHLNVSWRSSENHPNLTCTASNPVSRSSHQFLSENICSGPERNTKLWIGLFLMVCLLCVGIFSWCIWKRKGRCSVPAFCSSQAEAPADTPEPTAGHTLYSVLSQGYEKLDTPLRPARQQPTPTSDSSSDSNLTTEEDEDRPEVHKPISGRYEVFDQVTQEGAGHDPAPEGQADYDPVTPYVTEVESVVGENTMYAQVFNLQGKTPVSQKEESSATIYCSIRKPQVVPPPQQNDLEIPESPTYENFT
The experiment is described as follows: flow cytometry on transiently transfected COS cells. The text has this:
The mapping to the first or second domain was done as described in Romero et al 2005. Three different human Ly9 constructs were used: full-length human Ly9, a Ly9 isoform that […] and a chimeric mouse human molecule where the second Ig domain of Ly9 was substituted the corresponding mouse domain. The transfected cells were stained with different anti-human antibodies using flow cytometry.
^aCOS cells were transiently transfected with chimeric human (h)/mouse (m) constructs or the isoform lacking the first V-like Ig domain (CD229 ΔDI) described in Materials and Methods. CD229 mAbs were assayed by flow cytometry: +, Detection of protein expression, −, nondetection of protein expression. ^bDomain recognized by the mAb.

B1: HLy9.1.84 (antibody, V domains shown)
VH: QMQLQESGPELVKPGASVKISCKASGYTFTHYYINWVQQRPGQGLEWIGWIFPESGSTYYSEKFKAKATLTVDKSSSTAYMLLSSLTSEDSAVYFCARGTGFFDYWGQGTTLTVSS
VL: QIVLTQSPAIMSASPGEKVTVTCSASSSVSYMFWYQQKPGFSPRLLIYDTSNLASGVPVRFSGSGSGTSYSLTISRMEAEDAATYYCQQWSSYPPTFGGGTKLEIK
notes: also called HLy91.184
With B1, the binding result is “no binding”.
